The nanobody polyreactivity screen of Harvey et al. (2022)

Test: yeast display, Sf9 membrane polyspecificity reagent, FACS + sequencing; frameworks hold sequencing errors
In short: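 Synthetic nanobody libraries on Saccharomyces cerevisiae BJ5465 were galactose-induced for 36–48 hours, stained 1 hour at 4 °C with 10% biotinylated, detergent-solubilized Sf9 membrane reagent and enriched on streptavidin microbeads. FACS then separated cells into low and high (top ~1%) gates by anti-HA (expression) and streptavidin (reagent binding) fluorescence. Genes were colony-PCR amplified, MiSeq 2 × 250 sequenced and CDR-length filtered. A clone's polyreactivity label is that of its gate of origin.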

Sequence	polyreactivity (PSR sort gate)
QVQLVESGGGLVQAGGSLRLSCAASGITFYSYAMGWYRQAPGKERELVAAISSSGTTYYADSVKGRFTISRDNAKNTVYLQMNSLKPEDTAVYYCATDYSLGWYQDSDGGYQFDYWGQGTQVTVSS	high polyreactivity
QVQLVESGGGLVQAGGSLRLSCAASGITFYTNAMGWYRQAPGKERELVAAISSGDSTNYADSVKGRFTISRDNAKNTVYLQMNSLKPEDTAVYYCAKEATQLVWIGMDYWGQGTQVTVSS	low polyreactivity
QVQLVESGGGLVQAGGSLRLSCAASGITFYVNAMGWYRQAPGKERELVAAITQSVDITSYADSVKGRFTISRDNAKNTVYLQMNSLKPEDTAVYYCATRGIPDDNARDYWGQGTQVTVSS	low polyreactivity
QVQLVESGGGLVQAGGSLRLSCAASGITFYVNAMGWYRQAPGKERELVASISTGGSTNYADSVKGRFTISRDNAKNTVYLQMNSLKPEDTAVYYCAARVDYHPSLRDYWGQGTQVTVSS	low polyreactivity
QVQLVESGGGLVQAGGSLRLSCAASGITFYVYALRWYRQAPGKERELVASISWIGGRTYYADSVKGRFTISRDNAKNTVYVQMNSLKPEDTAVYYCAARAYSYWSGLDYWGQGTQVTVSS	high polyreactivity
QVQLVESGGGLVQAGGSLRLSCAASGITFYVYDMGWYRQAPGKERELVAAISWSGGSTYYADSVKGRFTISRDNAKNTVYLQMNSLKPEDTAVYYCAAEVEYWYELYDYWGQGTQVTVSS	high polyreactivity
QVQLVESGGGLVQAGGSLRLSCAASGITFYWYAMGWYRQAPGKERELVAAISSGGSTYYADSVKGRFTISRDNAKNTVYLQMNSLKPEDTAVYYCAAAFRYTPLSDHGYWGQGTQVTVSS	high polyreactivity
QVQLVESGGGLVQAGGSLRLSCAASGITFYYYAMGRYRQAPGKERELVAAIDTDGSTYYADSVKGRFTISRDNAKNTVYLQMNSLKPVDTAVYYCNAVGSRRSIPRVYYWGQGTQVNVSS	high polyreactivity
QVQLVESGGGLVQAGGSLRLSCAASGITFYYYAMGWYRQAPGKERELVAAINWSGTSTYYADSVKGRFTISRDNAKNTVYLQMNSLKPEDTAVYYCNAERGRSFWWAYDYWGQGTQVTVSS	low polyreactivity
QVQLVESGGGLVQAGGSLRLSCAASGITFYYYARGWYRQAPGKERELVAAINSGGITNYADSVKGRFTISRDNAKNTVFLQMNSLKPEDTAVYYCAASSGFRYRYGYWGQGTQVTVSS	high polyreactivity
QVQLVESGGGLVQAGGSLRLSCAASGITFYYYTMGWYRTAPGKEREFVAVISGSGGSTYYADSVKGRFTISRDNAKNTVYLQMNSLKPEDTAVYYCAARNSFLAYFVGLIQEDDYWGQGTQVTVSS	high polyreactivity
QVQLVESGGGLVQAGGSLRLSCAASGITIAGYAMGWYRQAPGKERELVAAITIGGRTYYADSVKGRFTISRDNAKNSVYLQMNSLKPEDTAVYYCAGVVRALTIKYGYWGQGTQVTVSS	high polyreactivity
QVQLVESGGGLVQAGGSLRLSCAASGITIGYNAMGWYRQAPGKERELVATIRSGGSTYYADSVKGRFTISRDNAQKTVYLQMNSLKPEDTAVYYCNRDGYYYSTFDFDYWGQGTQVTVSS	low polyreactivity
QVQLVESGGGLVQAGGSLRLSCAASGITIKYYTMGWYRQANGKERELVAAISRSGGSTYYADSVKGRFTISLDNAKNTVYLQMNSMIPEDTAVYYCAAERVAYRGVTFPYGYWGQGTQVTVSS	high polyreactivity
QVQLVESGGGLVQAGGSLRLSCAASGITIPVYLGWYRQAPGKETELVAAISSGGSTYADSVKGRFTISRDNAKNTVYLQMNSLKPEDTAVYYCNADRWFGNYLHLTFLNDYWGQGTQVTVSS	low polyreactivity
QVQLVESGGGLVQAGGSLRLSCAASGITIREYAMGWYRQAPGKERELVASISGGGGSTSYADSVKGRFTISRDNAKNTVYLQMNSLKPEDTAVYYCATRYAIAGWVGYYYWGQGTQVTVSS	low polyreactivity
QVQLVESGGGLVQAGGSLRLSCAASGITIRRYAMGWYRQAPGKERELVAAISTSGGGTYYADSVKGRFTISRDNAKYTVYLQMNSLKPEDTAVYYCAARYLGYLLSGYPPYDYWGQGTQVTVSS	high polyreactivity
QVQLVESGGGLVQAGGSLRLSCAASGITISWYAMGWYRQAPGKERELVAAITRTAGTNYADSVKGRFTISRDNAKNTVYLQMNSLKPEDTAVYYCAAVGHGGLLYWRNYGYGYWGQGTQVTVSS	low polyreactivity
QVQLVESGGGLVQAGGSLRLSCAASGITIVNYVMGWYRQAPGKERELVAAISLGGGTYYADSVKGRFTISRDNAKNTVYLQMNSLKADDTAVYYGNASYGGLAFYIGVYVTGYDYWRQGTQVTVSS	low polyreactivity
QVQLVESGGGLVQAGGSLRLSCAASGITIVYYTMGWYIQAPGKERELVASITWDGGSTYYADSVKGRFTISRDNAKNTVYLQMNSLKPEDTAVYYCNRDRVSGGKYNYWGQGTQVTVSS	low polyreactivity
QVQLVESGGGLVQAGGSLRLSCAASGITIYGNAMGWYRQAPGKERELVAAITFSGGITYYADSVKGRFTISRDNAKNTVYLQMNSLKPEDTAVYYCATDPIGGWTRPQRYGDDYWGQGTQVTVSS	low polyreactivity
QVQLVESGGGLVQAGGSLRLSCAASGITIYGYAMGWYRQAPGKERELVAAITRSGGRTYYADSVKGRFTISRDNAKNTVYLQMNSLKPEDTAVYYCAKDMNDETAPYYYWGQGTQVTVSS	high polyreactivity

Sequence	polyreactivity (PSR sort gate)
QVQLVESGGGLVQAGGSLRLSCAASGITLAIYAMGWYRQAPGKERELVAAISSSGASTYYADSVKGRFTISRDNAKNTVYILMNSLKPEDTAVYYCAAAYGGSSYEYNYWGQGTQVTVSS	low polyreactivity
QVQLVESGGGLVQAGGSLRLSCAASGITLAWYAMGWYRQAPGKERELVAAINSGGSTYYADSVKGRFTISRDNAKNTVYLQMNSLKPEDTAVYYCKTDDDSSSTGYYSWGQGTQVTVSS	low polyreactivity
QVQLVESGGGLVQAGGSLRLSCAASGITLFGYAMGWYRQAPGKERELVAVITSDGGRTYYADSVKGRFTISRDNAKNTVYLQMNSLKPEDTAVYYCAARAYDRTSGYYYWGQGTQVTVSS	low polyreactivity
QVQLVESGGGLVQAGGSLRLSCAASGITLFGYTMGWYRQAPGKERELVAAIRRRGVSTYYADSVKGRFTISRDNAKNTVYLQMNSLKPEDTAVYYCAKSLKPYTDYDYWGQGTQVTVSS	high polyreactivity
QVQLVESGGGLVQAGGSLRLSCAASGITLFHYVKGWYRQAPGKERELVADITWRGGNTFYADSVKGRFTISRDNAKNTVYLQMNSLKPEDTAVYYCAVRQAYRTRDYDYWGQGTQVTVSS	high polyreactivity
QVQLVESGGGLVQAGGSLRLSCAASGITLFHYVMGWYRQAPGKERELVAVISSSGGSTYYADSVKVRFTISRDNAKNSVYLHMNSLKQVDTAVYYGAAKRYNYWGQGTQVTVSS	high polyreactivity
QVQLVESGGGLVQAGGSLRLSCAASGITLGAYAMGWYRQAPGKERELVAAISRSGGSTYYADSVKGRFTISRDNAKNTVYLQMNSLKPEDTAVYYCNAGITHGYDYWGQGTQLTVSS	high polyreactivity
QVQLVESGGGLVQAGGSLRLSCAASGITLGGNGMGWYRQAPGKERELVAAISQSGGTTYYADSVKGRFTISRDNAKNTVYLQMNSLKPEDTAVYYCNALWRGHGRYNYWGQGTQVTVSS	low polyreactivity
QVQLVESGGGLVQAGGSLRLSCAASGITLGRYAMGWYRQAPGKERALVAAIPRSGGSTYYADSVKGRFTISRDNAKNTVYLQMNSLKPEDTAVYYCNRRVYPTSDYDYWGQGTQVTVSS	high polyreactivity
QVQLVESGGGLVQAGGSLRLSCAASGITLGYYAMGWYRQAPGKERELVAAISYRGGNTYYADSVKGRFTISRDNAKNTVYLQMNSLKPEDTAVYYCNADLGYESGWWSKYDYWGQGNQVTVSS	low polyreactivity
QVQLVESGGGLVQAGGSLRLSCAASGITLGYYVMGCYRPAPGKERELVAAISSSGGRTYYADSVKGRFTISRDTAKNTVYLQMNCLKPEDTAVYYCAADVGRGIYDYWGQGNQVTVSS	low polyreactivity
QVQLVESGGGLVQAGGSLRLSCAASGITLKRYAMGWYRQAPGTERELVAAITTSGGSTYYADSVKGRFTISRDTAKNTVYLQMNSLKPEDTAVYYCNAEDYWGKYYYWGQGTQVTVSS	low polyreactivity
QVQLVESGGGLVQAGGSLRLSCAASGITLLVNAMGWYRQAPGKERELVAAISGSSGGSTYYADSVKGRFTISRDNAKNTVYLQMNSLKPEDTAVYYCAKRKWYWGLSYIYDSWGQGTQVTVSS	low polyreactivity
QVQLVESGGGLVQAGGSLRLSCAASGITLRYYAMGWYRQAPGKERELVAAITYSGTNTRYADSVKGRFTISRDNAKNTVYFQMNSLKPEDTAVYYCAARNGFGSPQMGYWGQGTQVTVSS	high polyreactivity
QVQLVESGGGLVQAGGSLRLSCAASGITLSIYAMGWYRQAPGKERELVAAINGNGGSTYYADSVKGRFTISRDNAKNTVYLQMNSLKPEDTAVYYCAVTDYVYEHDDYWGQGTEVTVSS	low polyreactivity
QVQLVESGGGLVQAGGSLRLSCAASGITLSLYAMGWYRQAPGKERELVAAISRGGGRTYYADSVKGRFTISRDNAKNTVYLQMNSLKPEDTAVYYCNAYRRSYRWYGDLGEYWGQGTQVTVSS	high polyreactivity
QVQLVESGGGLVQAGGSLRLSCAASGITLTIYTMGWYRQAPGKERELVAAINWSGTRTYYADSVKGRFTISRDNAKNTVYFQMNSLKPEDTAVYYCAATTYRYPNILGYDYWGQGTQVSVSS	high polyreactivity
QVQLVESGGGLVQAGGSLRLSCAASGITLTRYAMGWYRQAPGKERELVAAITWSGGSTYYADSVKGRFTISRDNAKNTVYLQMNSLKPEDTAVYYCAAEYYEWVFWGYDYWGQGTQVTVSS	high polyreactivity
QVQLVESGGGLVQAGGSLRLSCAASGITLVANTMGWYRQAPGKERELVATITSSGGSTYYADSVKGRFTISRDNAMNTVYLQMISLKPEDTAVYYCAASDLRYRGNYVYLPSEYWGQGTQVNVSS	low polyreactivity
QVQLVESGGGLVQAGGSLRLSCAASGITLYFYAMGWYRQAPGKERELVAAISRGGRTYYADSVKGRFTISRDNAKNTVYLQMNSLKPEDTAVYYCAARYTSEYSAFDYWGQGTQVTVSS	low polyreactivity
QVQLVESGGGLVQAGGSLRLSCAASGITLYFYAMGWYRQAPGKERELVAGISGSVGSTHYADSVKGRFTISRDNAKNTVYLQMNSLKPEDTAVYYCAARYPFLRPKVNYWGQGTQVTVSS	high polyreactivity
